Positions count from the first letter of the chain named. Like-named read-outs stand apart in the source and are kept apart here. Marks after values point to notes of the source that are not given here.

As a reminder, the EC50 is the concentration at which the effect is half-maximal.

One data set deals with FGF receptor/BKL complex. The experiment in a line: FGF receptor potency in an Erk phosphorylation assay in HEK293 overexpressing human BKL. It counts as cell-based. The note with it: HEK293/BKL cells, pERK after 12 minutes. The method in brief: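 pERK after 12 min analogue exposure at 37° C. was quantified by AlphaScreen SureFire in lysates of beta-klotho-transfected HEK293 cells. Assay medium was DMEM with 0.02% Tween20, run both without albumin and with 0.1% final HSA to probe albumin binding. Cells were starved 2 h in basal medium first. Absolute EC50 reported.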
FGF receptor/BKL complex, sequence (Q86Z14 whole entry, one chain of several): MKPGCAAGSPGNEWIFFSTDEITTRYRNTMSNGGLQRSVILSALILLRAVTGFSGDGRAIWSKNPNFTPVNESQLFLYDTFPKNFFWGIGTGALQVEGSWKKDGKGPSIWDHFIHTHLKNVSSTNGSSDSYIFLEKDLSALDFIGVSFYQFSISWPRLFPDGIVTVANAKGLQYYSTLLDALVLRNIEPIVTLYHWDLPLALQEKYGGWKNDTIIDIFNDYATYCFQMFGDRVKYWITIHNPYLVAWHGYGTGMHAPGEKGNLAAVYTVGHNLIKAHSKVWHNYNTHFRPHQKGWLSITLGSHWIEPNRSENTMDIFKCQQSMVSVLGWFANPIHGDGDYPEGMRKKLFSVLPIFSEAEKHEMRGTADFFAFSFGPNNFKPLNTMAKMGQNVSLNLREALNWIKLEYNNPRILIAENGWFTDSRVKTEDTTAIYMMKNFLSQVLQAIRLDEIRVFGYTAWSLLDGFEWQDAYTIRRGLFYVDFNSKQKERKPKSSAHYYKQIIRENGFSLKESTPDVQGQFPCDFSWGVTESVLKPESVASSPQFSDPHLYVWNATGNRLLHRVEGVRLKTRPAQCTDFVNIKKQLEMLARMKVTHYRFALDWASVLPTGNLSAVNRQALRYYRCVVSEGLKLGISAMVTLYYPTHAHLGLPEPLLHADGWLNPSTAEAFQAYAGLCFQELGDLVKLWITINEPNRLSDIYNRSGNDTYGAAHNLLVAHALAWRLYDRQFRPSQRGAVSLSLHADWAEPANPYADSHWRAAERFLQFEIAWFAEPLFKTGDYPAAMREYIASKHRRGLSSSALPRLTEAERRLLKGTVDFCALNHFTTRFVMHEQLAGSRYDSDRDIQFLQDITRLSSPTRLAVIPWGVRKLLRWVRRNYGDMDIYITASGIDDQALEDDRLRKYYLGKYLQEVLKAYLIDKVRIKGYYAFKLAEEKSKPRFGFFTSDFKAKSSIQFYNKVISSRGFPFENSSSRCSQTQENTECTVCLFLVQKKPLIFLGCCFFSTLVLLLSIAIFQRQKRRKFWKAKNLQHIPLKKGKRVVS

The next data set has as its target 3T3-L1 adipocytes (Mus musculus, UniProt P16092+Q99N32). Kind of data set: Glucose uptake in 3T3-L1 adipocytes. The following applies: stimulated 20 hours, 3H-deoxy-glucose. In kind it is cell-based. The protocol: The C-terminal modified analogues were tested for their ability to increase glucose uptake in 3T3-L1 mouse adipocytes. The following assay was used for determining the biological activity, or potency, of FGF21 analogues and derivatives of the invention.
The in vitro potency may also be determined in an assay with mouse 3T3-L1 adipocytes by testing the FGF21 analogues and derivatives for their ability to increase glucose uptake into adipocytes. Differentiated 3T3-L1 adipocytes endogenously express FGFR1c and BKL. The 3T3-L1 cells are unresponsive to FGF21 until after differentiated as differentiation lead to expression of the co-receptor BKL. Activation of the FGFR1 receptor/BKL complex increase the expression of glucose transporter 1 (GLUT1) and therefore FGF21 agonists will lead to an increased amount of glucose taken into the adipocytes in a dose responsive manner.
Mouse 3T3-L1 fibroblasts (e.g. available from ATCC, catalogue no. CL-173) were maintained in basal medium (DMEM (4500 mg/I Glucose) with 10% Fetal Bovine Serum (FBS) and 1% Penicillin/Streptomycin). The cells are not allowed to reach confluence and should be passed (transferred to new vials) before reaching approx. 60% of confluency (by visual inspection).
For the glucose uptake assay, cells were 15.000 cells/well in a 96 well plate (BIOCOAT), and when they reached confluency (high density, with a view to have differentiated adipose cells made), the medium was changed from basal medium to basal medium containing Troglitazone, IBMX, Dexamethasone (commercially available from, e.g., Sigma) and human insulin (commercially available from, e.g., Novo Nordisk A/S).
The cells were used 7-9, days after initiation of differentiation. The cells were stimulated with increasing concentrations (0-300 nM) of the FGF21 analogues or derivatives of the invention for 20 hours in basal medium. Before addition of 3H-deoxy-glucose (in what follows: the tracer) the cells were washed in warm (approximately 37° C.) assay buffer (PBS with 1 mM MgCl2 and 2 mM CaCl2), HEPES and 0.1% Human serum albumin) and the cells were incubated with the tracer for 1 hour. This incubation was terminated by washing twice in ice cold assay buffer. The cells were lysed with Triton X-100 and lysates transferred to a 96 wells plate, microscint-40 (commercially available from, e.g., Perkin Elmer) was added and amount of tracer counted in a TOP-counter (e.g. a Packard top-counter from Perkin Elmer). The EC50 and Emax of the FGF21 compound in question were calculated. The results which are shown in tables 4-5 below indicate the EC50 (potency) and Emax (efficacy) of the FGF21 analogues and derivatives, respectively.

Data set [1] is described as follows: Pharmacokinetic study in mice (i.v.). The following applies: terminal half-life, single intravenous dose of 20 mg/kg, lean C57bl mice.
Protocol: This was done in a pharmacokinetic (PK) study, where the terminal half-life of the analogue in question was determined. By terminal half-life is meant the time it takes to halve a certain plasma concentration in the terminal elimination phase.
The pharmacokinetic profile of FGF21 analogues was tested in normal lean C57b1 mice, n =2-3 (approximately 30 grams). FGF21 compounds were dosed as a single intravenous dose of 20 mg/kg (approximately 5 ml/kg).
The plasma levels of the FGF21 compounds were determined using Fibroblast Growth Factor-21 Human ELISA (available from BioVendor, catalogue no. RD191108200R). The PC based software, WnNonLin version 6.3 from Pharsight Corportion, Cary N.C., was used for the pharmacokinetic calculation.
Data set [2] is described as follows: Body weight reduction in lean mice. The following applies: s.c. 1 mg/kg BID for 7 days, change from baseline day 1 to 7. It counts as in vivo, lean C57BL mice. The protocol: In order to determine the in vivo potency of the FGF21 derivatives the effect on body weight was studied in lean C57BL mice after subcutaneous (s.c.) administration. It has previously been shown that the weight loss induced by FGF21 in lean mice is predictive of the effect in obese mice and therefore lean mice are considered a good screening model.
The compounds were administered s.c. 1 mg/kg either once (QD) or twice (BID) daily in 10 mM phosphate, 2% (w/vol) glycerol, 500ppm (=0.05%) polysorbate 80, pH=8.15, (2 ml/kg) for 7 days (n=7-8). The respective vehicle treated groups (control) were treated with 10 mM phosphate, 2% (w/vol) glycerol, 500ppm (=0.05%) polysorbate 80, pH=8.15, (2 ml/kg) s.c. twice daily for 7 days (n=6-8). Body weight was measured before dosing and again after 7 days treatment.

The mark [3] stands for this setting: presence of 0.1% HSA, read-out: EC50 (0.1% HSA).

3T3-L1 adipocytes, sequence (Q99N32 whole entry): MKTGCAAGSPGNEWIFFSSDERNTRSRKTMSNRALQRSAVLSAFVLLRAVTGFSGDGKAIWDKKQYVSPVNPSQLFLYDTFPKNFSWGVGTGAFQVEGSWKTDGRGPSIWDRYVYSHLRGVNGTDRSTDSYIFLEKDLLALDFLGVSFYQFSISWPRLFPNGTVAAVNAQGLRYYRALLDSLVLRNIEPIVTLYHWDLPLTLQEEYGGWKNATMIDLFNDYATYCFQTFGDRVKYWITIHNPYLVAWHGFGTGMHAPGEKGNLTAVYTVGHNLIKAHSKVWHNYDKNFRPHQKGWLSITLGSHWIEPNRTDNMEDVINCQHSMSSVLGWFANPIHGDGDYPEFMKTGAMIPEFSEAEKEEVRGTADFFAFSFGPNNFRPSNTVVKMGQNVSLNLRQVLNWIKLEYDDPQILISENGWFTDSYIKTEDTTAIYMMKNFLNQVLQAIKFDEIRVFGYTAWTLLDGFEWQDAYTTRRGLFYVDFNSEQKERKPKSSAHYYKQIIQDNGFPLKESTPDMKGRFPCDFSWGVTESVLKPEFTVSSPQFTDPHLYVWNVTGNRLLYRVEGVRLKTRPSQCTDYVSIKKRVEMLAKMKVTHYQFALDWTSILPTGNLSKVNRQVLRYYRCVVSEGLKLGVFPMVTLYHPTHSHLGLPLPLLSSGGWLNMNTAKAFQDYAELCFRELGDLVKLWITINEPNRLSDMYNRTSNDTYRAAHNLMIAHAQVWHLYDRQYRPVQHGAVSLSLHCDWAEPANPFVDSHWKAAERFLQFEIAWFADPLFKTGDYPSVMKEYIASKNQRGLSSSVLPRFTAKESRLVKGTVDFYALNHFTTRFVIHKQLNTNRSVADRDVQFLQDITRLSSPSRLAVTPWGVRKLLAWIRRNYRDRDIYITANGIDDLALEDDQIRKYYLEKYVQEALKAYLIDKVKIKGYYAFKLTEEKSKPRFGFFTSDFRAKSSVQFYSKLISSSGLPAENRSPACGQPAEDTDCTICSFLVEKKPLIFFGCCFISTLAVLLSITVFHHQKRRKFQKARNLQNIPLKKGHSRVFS
3T3-L1 adipocytes, sequence (P16092 22-822): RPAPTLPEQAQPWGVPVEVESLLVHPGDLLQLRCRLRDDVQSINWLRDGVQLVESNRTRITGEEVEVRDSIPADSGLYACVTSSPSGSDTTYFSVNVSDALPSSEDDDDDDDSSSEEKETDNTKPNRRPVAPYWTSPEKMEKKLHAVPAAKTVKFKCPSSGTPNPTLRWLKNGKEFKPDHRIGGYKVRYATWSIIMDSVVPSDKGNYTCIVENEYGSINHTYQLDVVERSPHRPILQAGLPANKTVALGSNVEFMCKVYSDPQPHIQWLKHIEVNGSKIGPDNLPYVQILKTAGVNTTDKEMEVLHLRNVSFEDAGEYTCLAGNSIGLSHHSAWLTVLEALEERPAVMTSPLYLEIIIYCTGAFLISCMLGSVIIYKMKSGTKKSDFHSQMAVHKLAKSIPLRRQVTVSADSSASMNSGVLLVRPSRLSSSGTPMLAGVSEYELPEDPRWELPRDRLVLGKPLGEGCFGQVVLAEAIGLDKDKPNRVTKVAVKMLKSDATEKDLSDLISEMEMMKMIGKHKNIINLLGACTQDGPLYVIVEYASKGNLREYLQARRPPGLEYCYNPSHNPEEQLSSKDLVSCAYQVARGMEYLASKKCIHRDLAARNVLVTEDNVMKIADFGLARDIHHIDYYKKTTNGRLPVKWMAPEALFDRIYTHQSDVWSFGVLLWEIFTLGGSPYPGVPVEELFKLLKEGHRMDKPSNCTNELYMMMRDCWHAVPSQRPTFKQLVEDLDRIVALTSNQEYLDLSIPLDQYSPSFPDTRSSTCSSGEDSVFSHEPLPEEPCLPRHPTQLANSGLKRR

B1: S{Beta-179}-[2-[2-[[2-[2-[2-[[2-[2-[2-[[(4S)-4-carboxy-4-(15-carboxypentadecanoyl-amino)butanoyl]amino]ethoxy]ethoxy]acetyl]amino]ethoxy]ethoxy]acetyl]amino]-ethylamino]-2-oxoethyl]-Ala[Gln121,Leu168, … (protein)
chain: HPIPDSSPLLQFGGQVRQRYLYTDDAQQTEAHLEIREDGTVGGAADQSPESLLQLKALKPGVIQILGVKTSRFLCQRPDGALYGSLHFDPEACSFRELLLEDGYNVYQSEAHGLPLHLPGQKSPHRDPAPRGPARFLPLPGLPPALPEPPGILAPQPPDVGSSDPLSLVGPSQGRSPSCAS
On to B1, for which the EC50 was 107 nM on FGF receptor/BKL complex (absence of HSA, read-out: EC50); 134 nM on FGF receptor/BKL complex (setting [3]); 107 nM in the data set with 3T3-L1 adipocytes. Also, in the data set with 3T3-L1 adipocytes, the “Glucose uptake Emax” value is given as 54%.

B2: S{Beta-181}-[2-[2-[[2-[2-[2-[[2-[2-[2-[[(4S)-4-carboxy-4-(19-carboxynonadecanoyl-amino)butanoyl]amino]ethoxy]ethoxy]acetyl]amino]ethoxy]ethoxy]acetyl]amino]-ethylamino]-2-oxoethyl]-Ala[Gln121,Leu168,C … (protein)
chain: B1 chain with C179Y, S181C
B2 displayed a Half-life mice in data set [1] of 19 h. The EC50 was found to be 58 nM at FGF receptor/BKL complex (absence of HSA, read-out: EC50); 434 nM on FGF receptor/BKL complex (setting [3]); 410 nM with 3T3-L1 adipocytes. In the data set with 3T3-L1 adipocytes, the “Glucose uptake Emax” value was 57%.

B3: S{Beta-180}-[2-[2-[[2-[2-[2-[[2-[2-[2-[[(4S)-4-carboxy-4-(11-carboxyundecanoyl-amino)butanoyl]amino]ethoxy]ethoxy]acetyl]amino]ethoxy]ethoxy]acetyl]amino]-ethylamino]-2-oxoethyl]-Ala[Gln121,Leu168,Cys … (protein)
chain: B1 chain with C179Y, A180C
As for B3, in data set [1], the Half-life mice was determined as 1 h. The EC50 at FGF receptor/BKL complex (absence of HSA, read-out: EC50) is 7 nM; on FGF receptor/BKL complex (setting [3]) it was 4 nM; with 3T3-L1 adipocytes, 2.7 nM. Besides, the “Mean Δ body weight (%)” value in data set [2] is recorded as −2.04%. In the data set with 3T3-L1 adipocytes, the “Glucose uptake Emax” value is given as 87%.

B4: S{Beta-181}-[2-[2-[[2-[2-[2-[[2-[2-[2-[[(4S)-4-carboxy-4-(11-carboxyundecanoyl-amino)butanoyl]amino]ethoxy]ethoxy]acetyl]amino]ethoxy]ethoxy]acetyl]amino]-ethylamino]-2-oxoethyl]-Ala[Gln121,Leu168,Cys … (protein)
chain: B1 chain with C179Y, S181C
B4: the Half-life mice in data set [1] is 1 h. The EC50 at FGF receptor/BKL complex (absence of HSA, read-out: EC50) is 154 nM; at FGF receptor/BKL complex (setting [3]), 137 nM. Besides, in data set [2], the “Mean Δ body weight (%)” value came out at 0.04%.

B5: S{Beta-180}-[2-[2-[[2-[2-[2-[[2-[2-[2-[[(4S)-4-carboxy-4-(19-carboxynonadecanoyl-amino)butanoyl]amino]ethoxy]ethoxy]acetyl]amino]ethoxy]ethoxy]acetyl]amino]-ethylamino]-2-oxoethyl]-Ala[Gln121,Leu168,C … (protein)
chain: B1 chain with C179Y, A180C
Turning to B5, the EC50 on FGF receptor/BKL complex (absence of HSA, read-out: EC50) is 5 nM; on FGF receptor/BKL complex (setting [3]), 133 nM; in the data set with 3T3-L1 adipocytes, 24 nM. In addition, in the data set with 3T3-L1 adipocytes, the “Glucose uptake Emax” value was 53%.

B6: Ala[Gln121, Leu168]FGF21 (protein)
chain: AHPIPDSSPLLQFGGQVRQRYLYTDDAQQTEAHLEIREDGTVGGAADQSPESLLQLKALKPGVIQILGVKTSRFLCQRPDGALYGSLHFDPEACSFRELLLEDGYNVYQSEAHGLPLHLPGQKSPHRDPAPRGPARFLPLPGLPPALPEPPGILAPQPPDVGSSDPLSLVGPSQGRSPSYAS
modifications: N-terminal Ala
Take B6: the EC50 came out at 2 nM on FGF receptor/BKL complex (absence of HSA, read-out: EC50) and 3.1 nM with 3T3-L1 adipocytes. For the same molecule, in data set [2], the “Mean Δ body weight (%)” value was −1.98** %. Besides, the “Glucose uptake Emax” value with 3T3-L1 adipocytes is on record as 85%.

B7: S{Beta-176}-2-aminoethylsulfanyl-Ala[Gln121, Leu168, Cys176]FGF21 (protein)
chain: B6 chain with S177C
modifications: cysteamine-protected Cys176
As for B7, the EC50 at FGF receptor/BKL complex (absence of HSA, read-out: EC50) is 227 nM. Also, in the data set with 3T3-L1 adipocytes, the EC50 turned out to be 73 nM and the “Glucose uptake Emax” value was 84%.

B8: S{Beta-181}-[2-[2-[[2-[2-[2-[[2-[2-[2-[[(4S)-4-carboxy-4-(17-carboxyheptadecanoyl-amino)butanoyl]amino]ethoxy]ethoxy]acetyl]amino]ethoxy]ethoxy]acetyl]amino]-ethylamino]-2-oxoethyl]-Met[Cys181]FGF21 (protein)
chain: B6 chain with A1M, Q122N, L169M, S182C
For the molecule B8, in data set [1], the Half-life mice was 12 h.

B9: S{Beta-180}-[2-[2-[[2-[2-[2-[[2-[2-[2-[[(4S)-4-carboxy-4-(17-carboxyheptadecanoyl-amino)butanoyl]amino]ethoxy]ethoxy]acetyl]amino]ethoxy]ethoxy]acetyl]amino]-ethylamino]-2-oxoethyl]-Ala[Gln121,Leu168, … (protein)
chain: HPIPDSSPLLQFGGQVRQRYLYTDDAQQTEAHLEIREDGTVGGAADQSPESLLQLKALKPGVIQILGVKTSRFLCQRPDGALYGSLHFDPEACSFRELLLEDGYNVYQSEAHGLPLHLPGQKSPHRDPAPRGPARFLPLPGLPPALPEPPGILAPQPPDVGSSDPLSLVGPSQGRSPSYC
As to B9, the EC50 on FGF receptor/BKL complex (absence of HSA, read-out: EC50) was found to be 8 nM; at FGF receptor/BKL complex (setting [3]) it was 20 nM; in the data set with 3T3-L1 adipocytes it was 8 nM. In addition, the “Glucose uptake Emax” value with 3T3-L1 adipocytes was 71%.

The values above are taken from patent US20170182124A1, “FGF21 Derivatives and Uses Thereof” (Novo Nordisk A/S, priority 2014, published 2017).
